Source: patent US20100087005A1, “AUXILIARY REAGENT FOR GENE TRANSFER” (priority 2006, published 2010)

System: transgenic mice overexpressing full-length Del-1
Assay: In vivo gene transfer of human thermostable alkaline phosphatase gene (TransIT In Vivo Gene Delivery System) in Del-1 transgenic mice, serum AP activity
Design: species or system mouse
Settings: tail vein injection of human thermostable alkaline phosphatase gene, serum 24 hours later, heat treated 65° C. 30 minutes, FIG. 5
Method: According to the ordinary method, transgenic mice in which cDNA of full-length Del-1 (i.e., DNA consisting of the nucleotide sequence represented by SEQ ID NO: 9) is overexpressed were prepared (see Hidai et al., Anatomical Record A, vol. 287A, pp. 1165-1175). Del-1 protein produced in cells of the transgenic mice is a protein having the amino acid sequence represented by SEQ ID NO: 10 (including the signal peptide). Del-1 protein secreted from the cells to the outside thereof is a protein having an amino acid sequence consisting of amino acid residues at positions 26 to 480 in the amino acid sequence represented by SEQ ID NO: 10 (excluding the signal peptide). […] Using 20 μl of serum after the heat treatment, the activity of exogenous alkaline phosphatase (human thermostable alkaline phosphatase) was measured. In the measurement of the activity, 20 μl of serum was mixed with 200 μl of 1 mg/ml p-nitrophenyl phosphate, and after causing reaction at room temperature for 30 minutes to 1 hour, the absorbance at 405 nm was measured using a […] (BioRad). […]
Measurement values of the alkaline phosphatase activity are expressed by average value±SEM (standard error of the mean). The measurement values obtained from the control group into which alkaline phosphatase gene was not injected are regarded as 1, and the measurement values of the transgenic mice were calculated based thereon.

B1: full-length Del-1: Del-1 protein, SEQ ID NO: 10, overexpressed in transgenic mice; secreted form residues 26 to 480 (protein, listed as Mus musculus)
chain: MKHLVAAWLLVGLSLGVPQFGKGDICNPNPCENGGICLSGLADDSFSCECPEGFAGPNCSSVVEVASDEEKPTSAGPCIPNPCHNGGTCEISEAYRGDTFIGYVCKCPRGFNGIHCQHNINECEAEPCRNGGICTDLVANYSCECPGEFMGRNCQYKCSGPLGIEGGIISNQQITASSTHRALFGLRKWYPYYARLNKKGLINAWTAAENDRWPWIQINLQRKMRVTGVITQGAKRIGSPEYIKSYKIAYSNDGKTWAMYKVKGTNEEMVFRGNVDNNTPYANSFTPPIKAQYVRLYPQICRRHCTLRMELLGCELSGCSEPLGMKSGHIQDYQITASSVFRTLNMDMFTWEPRKARLDKQGKVNAWTSGHNDQSQWLQVDLLVPTKVTGIITQGAKDFGHVQFVGSYKLAYSNDGEHWMVHQDEKQRKDKVFQGNFDNDTHRKNVIDPPIYARFIRILPWSWYGRITLRSELLGCAEEE
  exogenous alkaline phosphatase activity in serum, transgenic mouse (TG) vs wild-type mouse (WT): about twice as high as that of the wild-type mouse (WT)
